Where “and” joins values, the source holds several entries; their conditions need not be identical. Identical values can stand only once. Like-named read-outs stand apart in the source and are kept apart here.
Experiments:
[1] = target: T1, Vβ17 on human CD8+ T cells (human); test: FACS
T1 chain: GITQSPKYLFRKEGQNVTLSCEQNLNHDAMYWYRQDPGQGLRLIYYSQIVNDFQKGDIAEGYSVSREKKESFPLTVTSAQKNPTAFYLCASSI

[2] = target: T1, Vβ17 on human CD8+ T cells; test: FACS

B1: VB13 (Vβ17×Null) bispecific antibody (bispecific antibody)
heavy 1: QVQLQESGPGLVKPSETLSLTCTVSGYSITSGYFWNWIRQPPGKGLEWIGYISYDGSNNYNPSLKSRVTISRDTSKNQFSLKLSSVTAADTAVYYCASPSPGTGYAVDYWGQGTLVTVSSASTKGPSVFPLAPCSRSTSESTAALGCLVKDYFPEPVTVSWNSGALTSGVHTFPAVLQSSGLYSLSSVVTVPSSSLGTKTYTCNVDHKPSNTKVDKRVESKYGPPCPPCPAPEAAGGPSVFLFPPKPKDTLMISRTPEVTCVVVDVSQEDPEVQFNWYVDGVEVHNAKTKPREEQFNSTYRVVSVLTVLHQDWLNGKEYKCKVSNKGLPSSIEKTISKAKGQPREPQVYTLPPSQEEMTKNQVSLSCAVKGFYPSDIAVEWESNGQPENNYKTTPPVLDSDGSFFLVSRLTVDKSRWQEGNVFSCSVMHEALHNRFTQKSLSLSLGK
light 1: DIQMTQSPSSLSASVGDRVTITCRSSQSLVHSNGNTYLHWYQQKPGKAPKFLIYKVSNRFSGVPSRFSGSGSGTDFTLTISSLQPEDFATYYCSQSTHVPFTFGQGTKLEIKRTVAAPSVFIFPPSDEQLKSGTASVVCLLNNFYPREAKVQWKVDNALQSGNSQESVTEQDSKDSTYSLSSTLTLSKADYEKHKVYACEVTHQGLSSPVTKSFNRGEC
heavy 2: not shown
light 2: not shown
[1]
  EC50: 12.6 nM
[2]
  EC50: 1.4 nM and 1.5 nM

B2: VB11 (anti-Vβ17/anti-CD123) bispecific antibody (bispecific antibody)
heavy 1: B1 heavy 1
light 1: B1 light 1
heavy 2: EVQLVQSGAEVKKPGESLKISCKGSGYSFTSYWISWVRQMPGKGLEWMGIIDPSDSDTRYSPSFQGQVTISADKSISTAYLQWSSLKASDTAMYYCARGDGSTDLDYWGQGTLVTVSSASTKGPSVFPLAPCSRSTSESTAALGCLVKDYFPEPVTVSWNSGALTSGVHTFPAVLQSSGLYSLSSVVTVPSSSLGTKTYTCNVDHKPSNTKVDKRVESKYGPPCPPCPAPEAAGGPSVFLFPPKPKDTLMISRTPEVTCVVVDVSQEDPEVQFNWYVDGVEVHNAKTKPREEQFNSTYRVVSVLTVLHQDWLNGKEYKCKVSNKGLPSSIEKTISKAKGQPREPQVYTLPPSQEEMTKNQVSLWCLVKGFYPSDIAVEWESNGQPENNYKTTPPVLDSDGSFFLYSRLTVDKSRWQEGNVFSCSVMHEALHNHYTQKSLSLSLGK
light 2: EIVLTQSPGTLSLSPGERATLSCRASQSVSSSYLAWYQQKPGQAPRLLIYGASSRATGIPDRFSGSGSGTDFTLTISRLEPEDFAVYYCQQDYGFPWTFGQGTKVEIKRTVAAPSVFIFPPSDEQLKSGTASVVCLLNNFYPREAKVQWKVDNALQSGNSQESVTEQDSKDSTYSLSSTLTLSKADYEKHKVYACEVTHQGLSSPVTKSFNRGEC
[2]
  EC50: 0.8 nM and 1.26 nM
